Results taken from patent US11312781B2, “Antigen binding molecules that bind LIGHT” (Capella Bioscience Ltd., priority 2018, dated 2022).

What was measured:
[1] = tested on: DSS-induced colitis in hu-NOG mice; assay: DSS-induced acute colitis in humanized (hu-NOG) mice; format: in vivo, mouse (hu-NOG)
Procedure: The experiments were carried out with the NOD/Shi-scid/IL-2Rγnull immunodeficient mouse strain (NOG) engrafted with CD34+ hematopoietic stem cells isolated from human cord blood as described in Manfroi B et al. (Cancer Res. 2017; 77:1097-1107). The reconstitution of the human immune system in the mice occurred for at least 14 weeks, and hu-mice were used that had at least 25% human CD45+/total CD45 cells. Female hu-NOG mice were randomised into 3 groups (n=10) taking into account the humanization rate and the CD34+ cell donors. All animal studies described in this study have been reviewed and approved by the local ethic committee (CELEAG). Mice were allowed to acclimate to the experimental environment for 5 days prior to the beginning of the experiment. The DSS was administrated for 7 days, from day 2 to 8. The DSS (3%) was added to the drinking water (ad libitum) and freshly renewed every two days.
All treatments started before the DSS-induced colitis. 3B04 variant 16 (5 mg/kg) and the isotype control and anti-TNF (Humira) antibodies (10 mg/kg) were administrated i.p. on days 0, 3, 6, 9. The experiment was terminated on day 12. The following parameters were recorded daily for 12 days: body weight in grams (g); diarrhea and stool consistency; bleeding and mortality. The global clinical score was calculated as follows: […]

[2] = tested on: CMV stimulated human PBMC; assay: Human PBMC antigen specific (CMV) recall response in vitro, cytokines by Luminex; format: cell-based; conditions: CMV stimulation, 5 day incubation
Procedure: In order to test the efficacy of anti-LIGHT mAbs on stimulated PBMC a recall antigen CMV (cytomegalovirus) lysate was utilised to stimulate PBMC from human CMV-positive donors (ImmunXperts, Belgium). 200 000 cells per well in RPMI (Thermofisher cat. no. 11875) plus 10% FBS (GIBCO) was added to CMV lysate (Serion immunologics cat. no. BA109VS, final concentration 10 ug/ml) with test mAbs in a volume of 200 ul. After a 5 day incubation at 37C and 5% CO2 the media was recovered by centrifugation and assayed for cytokines by Luminex immunoassay (ThermoFisher).

[3] = target: T1, DcR3 binding to membrane LIGHT (EL4-LIGHT cells) (Homo sapiens, UniProt O43557); assay: Competition binding of anti-membrane LIGHT antibodies with DcR3-His on EL4-LIGHT cells; conditions: mAb at up to 100 nM
T1 construct: expressed in transfected cells; host or cells: EL4 mouse lymphoma cells, stably transduced
Procedure: DcR3 (TNFRSF6B) is a decoy receptor that competes with receptors for ligand binding. DcR3 can bind and neutralise LIGHT with high affinity and TL1A and FasL with lower affinity (Zhan C et al. Structure. 2011, 19:162-71 “Decoy strategies: the structure of TL1A:DcR3 complex”). Stably transduced LIGHT-expressing EL4 cells (mouse lymphoma cell line; EL4-LIGHT) were used for the flow cytometry-based competition-binding analysis.
EL4-LIGHT cells (0.25×10^6) were preincubated with anti-membrane LIGHT mAbs (0-300 nM) for 15 min at 4° C. followed by incubation with DcR3-His tagged (1 nM, Creative BioMart; ref:TNFRSF6B-552H, lot:962512) for 30 min at 4° C. The samples were then incubated with mouse anti-histag antibody (diluted 1:500, Biolegend, cat. no. 652502) for 30 minutes at 4° C., followed by incubation with anti-mouse APC (dil 1:500, BDBiosciences, cat. no. 550826) for 30 minutes at 4° C. The tubes were washed three times after each of the detection antibody stages and flow cytometry analysis was performed. Specific mean fluorescence intensity (MFI) obtained from the binding of DcR3-His to LIGHT on EL4 cells were used to determine the levels of competition binding.

[4] = tested on: wild type and mutated membrane LIGHT; assay: Alanine scanning mutagenesis of membrane LIGHT and flow cytometry (HEK293FF cells); format: binding, human
From the text: The full length LIGHT gene was synthesized by GeneArt (ThermoFisher Scientific) and cloned into the mammalian expression vector pcDNA 3.1(+). The following Ala mutations were introduced into the LIGHT gene: 30 single amino acid alanine substitutions from F57A to E86A; 2 single amino acid alanine substitutions; G188A, R189A; one serine substitution, A190S; 17 single amino acid alanine substitutions; T191A to V207A and 10 four amino acid alanine substitutions, 60-63, 64-67, 68-71, 72-75, 76-79, 80-83, 84-87, 88-91, 92-95 and 96-99. Constructs were reconstituted according to manufacture instructions, using DEPC-treated and sterile filtered water. Competent TOP10 E. coli cells were transformed with 100 ng of each construct and a single colony from each construct was picked and used to inoculate 10 ml of LB/carb100/glu2% medium and grown overnight at 37° C., 200 rpm. The extraction of the construct DNA was performed using the Qiagen QIAprep Spin Miniprep Kit (250) and the concentration was determined by measuring the O.D. at 260 nm in a spectrophotometer.
HEK293FF cells were cultured in Freestyle™293 expression medium (ThermoFisher scientific cat. no. 12338018) supplemented with 2 mM L-Glutamine. The day of transfection the cells were seeded in a 24-well plate at 0.6×10^6 cells/well. Lipofectamine 2000 (ThermoFisher scientific), 3 μl, was mixed with 50 μl OptiMEM medium (GIBCO) and then added to 50 μl Opti-MEM medium containing 3 ug plasmid DNA and incubated for 20 min at RT to form DNA-Lipofectamine 2000 complexes which were then added to the HEK293FF cells and incubated at 37° C., 5% CO2 for 24 hours. For each construct, in duplicate, 0.60×10^6 cells/well were used in a 96 well round bottom plate. Cells were centrifuged for 3 minutes at 300×g at 4° C., the supernatant discarded and the cells washed with 150 μl FACS buffer (0.5% FBS in phosphate buffered saline). This process was repeated 3 times. For each construct, […] cells/well were incubated with anti-LIGHT antibodies at the EC50 concentration and with positive controls of anti-LIGHT mAb MAB664 (R&D Systems), mAb F19 (EP2292663) or LTBR-Fc (R&D Systems), in a final volume of 50 μl/well for 30 min at 4° C., with shaking. The wells were washed 3 times as above and 50 μl/well of goat anti-human IgG FITC (1:1500 dilution in FACS buffer, SIGMA F9512-2ML) or goat anti-mouse APC (1/500 dilution in FACS buffer, BDBioscience 550826), as appropriate, was added to the wells and incubated for 30 min at 4° C. protected from the light, with shaking. The cells were then washed as above, resuspended in 100 μl of FACS buffer and binding of the antibodies to the constructs was measured using flow cytometry and a total of 10,000 cells were acquired for each sample. Controls of buffer and secondary antibody only as well as HEK293FF non transfected cells were also used.
All of the mAbs of this invention show a similar profile in that their epitope is located at amino acids 188-197 of LIGHT. […] The epitope of the mAbs of this invention defined by alanine scanning mutagenesis are residues 188-197 of LIGHT. This is visually depicted in FIG. 8 utilising a 3D visualisation of the LIGHT trimer from the crystal structure of LIGHT from Liu et al. (Structure 22: 1252-62; 2014). This would result in the mAbs binding to the “tip” of the LIGHT trimer and explaining the 1:1 binding. The impact of this epitope would result in […] less dosing of mAb 3B04 being required to neutralise membrane LIGHT compared to, for example, mAbs F19 and F23 (of EP2292663) which bind both soluble and membrane LIGHT equally and bind LIGHT in the ratio 3:1.

T1 sequence (O43557 whole entry): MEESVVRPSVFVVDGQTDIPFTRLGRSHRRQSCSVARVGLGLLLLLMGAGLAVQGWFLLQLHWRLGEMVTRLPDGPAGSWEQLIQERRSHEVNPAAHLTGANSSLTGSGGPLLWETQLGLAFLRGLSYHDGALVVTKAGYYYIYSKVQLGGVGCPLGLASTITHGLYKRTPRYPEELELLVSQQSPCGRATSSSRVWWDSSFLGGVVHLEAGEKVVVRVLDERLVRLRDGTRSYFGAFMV

B1: 3B04_var16: deimmunised 3B04 IgG4 variant: 3B04_VL_4 (SEQ ID NO 33) + 3B04_VH_4 (SEQ ID NO 37) (antibody, listed as Homo sapiens, V domains shown)
VH: QVQLVQSGAEVKKPGASVKVSCKASGYTFTDYEMHWVRQAPGQGLEWMGEIDPETGDTAYAQKFQGRVTLTADKSTSTAYMELSSLRSEDTAVYYCSRETDYFFDYWGQGTLVTVSS
VL: DIQMTQSPSSLSASVGDRVTITCRASENIYGALNWYQQKPGKAPKLLIYGATNLAEGVPSRFSGSGSGRDYTLTISSLQPEDFATYYCQNVLTTPWTFGQGTKLEIKR
[1]; 3B04 variant 16 5 mg/kg, Humira 10 mg/kg
  Effect on global clinical score compared to the anti-TNF positive control: significantly superior (p<0.05)
[1]; i.p. days 0, 3, 6, 9, versus IgG control, FIG. 9
  Global clinical score: significant (p<0.05) decrease in global clinical score as early as day 2
[2]; FIG. 11A
  IL-17 production from PBMC: significantly (p<0.05) inhibited
[2]; FIG. 11B
  IFN gamma production from PBMC: significantly (p<0.05) inhibited
[2]; FIG. 11C
  TNF production from PBMC: significantly (p<0.05) inhibited
[2]; FIG. 11D
  IL-6 production from PBMC: significantly (p<0.05) inhibited
[2]; FIG. 11E
  IL-12p70 production from PBMC: significantly (p<0.05) inhibited

B2: 2E08: parental anti-membrane LIGHT antibody, VL SEQ ID NO 81, VH SEQ ID NO 85; chimeric IgG4 mAb (antibody, listed as Homo sapiens, V domains shown)
VH: QVQMKESGAELVRPGVSVKISCKGSGYTFTDYAIHWVKQSHAKTLEWIGVISTYYGDASYNQKFKGKATMTVDKSSSTAYMELARLTSDDSAIYYCARSRGEYGNYDAMDYWGQGTSVTVSS
VL: DIVLTQSPASLAVSLGQRATISCKASQSVDYDGDSYMNWYQQKPGQPPKLLIYAASNLESGIPARFSGSGSGTDFTLNIHPVEEEDAATYYCQQSNEDPLTFGAGTKLELK
[3]
  Inhibition of DcR3 binding to membrane LIGHT: only partially inhibit

B3: 3A07: parental anti-membrane LIGHT antibody, VL SEQ ID NO 97, VH SEQ ID NO 101; chimeric IgG4 mAb (antibody, listed as Homo sapiens, V domains shown)
VH: QVQLQQSGAELVRPGAPVTLSCKASDYTFTDSEIHWVKQTPVHGLEWIGEIDPETGGTAYNQKFKGKATLTADKSSSTAYMELRSLTSEDSAVYYCSRETDYFFDYWGQGTTLTVSS
VL: ENVLTQSPAIMSASPGEKVTMTCSASSSVSYMYWYQQRPGSSPRLLIYDTSNLASGVPVRFSGSGSGTSYSLTISRMEAEDAATYYCQQWSSYPLTFGSGTKLEIK
[3]
  Inhibition of DcR3 binding to membrane LIGHT: only partially inhibit

B4: 3C10: parental anti-membrane LIGHT antibody, VL SEQ ID NO 89, VH SEQ ID NO 93; chimeric IgG4 mAb (antibody, listed as Homo sapiens, V domains shown)
VH: EVQLQQSGAELVRPGASVTLSCKASDYTFTDSEIHWVKQTPVHGLEWIGEIDPETGGTAYNQKFKGKATLTADKSSSTAYMELRSLTSEDSAVYYCSRETDYFFDYWGQGTTLTVSS
VL: DVVMTQTPAIMSASPGEKVTMTCSASSSVSYMYWYQQKPGSSPRLLIYDTSNLASGVPVRFSGSGSGTSYSLTISRMEAEDAATYYCQQWSSYPLTFGAGTKLELK
[3]
  Inhibition of DcR3 binding to membrane LIGHT: only partially inhibit

B5: LTBR-Fc: LTBR-Fc receptor fusion protein (R&D Systems), positive control in alanine scanning (protein)
chain: SQPQAVPPYASENQTCRDQEKEYYEPQHRICCSRCPPGTYVSAKCSRIRDTVCATCAENSYNEHWNYLTICQLCRPCDPVMGLEEIAPCTSKRKTQCRCQPGMFCAAWALECTHCELLSDCPPGTEAELKDEVGKGNNHCVPCKAGHFQNTSSPSARCQPHTRCENQGLVEAAPGTAQSDTTCKNPLEPLPPEMSGTMLM
modifications: left off: a dimerising Fc or GST
notes: LTBR-Fc receptor fusion protein (R&D Systems), positive control in alanine scanning
[4]; single substitutions F57A to E86A and four amino acid substitutions 60-63 to 96-99
  Binding to LIGHT alanine substitution constructs versus WT LIGHT: no difference in binding
[4]; substitutions G188A to V207A
  Binding to LIGHT amino acid substitution constructs versus WT LIGHT: no difference in binding
